# From publication PMC2553597 (Nucleic Acids Research, 2008)
# Like-named read-outs stand apart in the source and are kept apart here.
# T1: RAD54B26-225 (Homo sapiens, UniProt Q9Y620 26-225)
# T1 sequence: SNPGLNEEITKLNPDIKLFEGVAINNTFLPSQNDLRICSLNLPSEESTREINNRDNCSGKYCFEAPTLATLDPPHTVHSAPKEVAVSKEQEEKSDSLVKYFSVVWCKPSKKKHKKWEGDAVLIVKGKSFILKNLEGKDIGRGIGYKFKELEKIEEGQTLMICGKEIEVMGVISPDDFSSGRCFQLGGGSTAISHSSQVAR
# T2: DMC1 (UniProt Q14565 1-340)
# T2 sequence (looked up): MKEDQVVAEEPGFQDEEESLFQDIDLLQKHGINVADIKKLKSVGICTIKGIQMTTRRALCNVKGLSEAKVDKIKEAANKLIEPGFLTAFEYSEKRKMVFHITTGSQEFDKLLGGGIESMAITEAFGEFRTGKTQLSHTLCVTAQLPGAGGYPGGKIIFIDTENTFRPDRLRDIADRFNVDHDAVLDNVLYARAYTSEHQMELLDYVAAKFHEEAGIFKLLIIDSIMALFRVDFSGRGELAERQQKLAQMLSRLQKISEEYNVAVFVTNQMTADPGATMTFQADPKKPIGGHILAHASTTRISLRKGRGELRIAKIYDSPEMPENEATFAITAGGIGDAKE
# B1: GST-fused DMC1 deletion mutant, amino acid residues 153-214 (fragment VI) (domain or fragment, UniProt Q14565 153-214, looked up)
# chain: GGKIIFIDTENTFRPDRLRDIADRFNVDHDAVLDNVLYARAYTSEHQMELLDYVAAKFHEEA
# B2: human RAD54B N-terminal fragment, amino acid residues 26-225 (RAD54B_(26–225)) (domain or fragment, UniProt Q9Y620 26-225, looked up)
# chain: T1 sequence
# B3: dsDNA (oligos 2/2a) (dsDNA)
# DNA 1: TGGGTCAACGTGGGCAAAGATGTCCTAGCAATGTAATCGTCTATGACGTT
# DNA 2: AACGTCATAGACGATTACATTGCTAGGACATCTTTGCCCACGTTGACCCA
# B4: 5'-flapped DNA (oligos 2/8/15) (structured_DNA)
# DNA 1: B3 DNA 1
# DNA 2: CAACGTCATAGACGATTACATTGCTAATCACTGGCACTGGTAGAATTCGGC
# DNA 3: TGCCGAATTCTACCAGTGCCAGTGAT
# B5: 3'-PX junction (oligos 2/6/7/10) (structured_DNA)
# DNA 1: B3 DNA 1
# DNA 2: GTCGGATCCTCTAGACAGCTCCATGATCACTGGCACTGGTAGAATTCGGC
# DNA 3: CAACGTCATAGACGATTACATTGCTACATGGAGCTGTCTAGAGGATCCGA
# DNA 4: GGACATCTTTGCCCACGTTGACCC
# Legend:
# [1] = target: B2; test: pull-down
# RAD54B26-225 [2] = target: T1, RAD54B26-225; test: EMSA
# SEC = target: the molecule itself; test: SEC
# DMC1 = target: T2, DMC1; test: pull-down
# RAD54B26-225 [3] = target: T1, RAD54B26-225; test: EMSA; remark: listed apart in the source
# RAD54B26-225 [4] = target: T1, RAD54B26-225; test: EMSA; remark: listed apart in the source
# RAD54B26-225 [5] = target: T1, RAD54B26-225; test: EMSA; remark: listed apart in the source
binder,measurement,setting,value
B1,binding result,[1],binds
AAAAAAAAAAAAAAAAAAAAAAAAAAAAAAAAAAAAAAAAAAAA (ssDNA) [polyA 44-mer],binding result,RAD54B26-225 [2],binds
"ASTTRISLRKGRGELRIAKIYDSPEMPENEATFAITAGGIGDAKE (domain or fragment, UniProt Q14565 296-340, looked up) [GST-fused DMC1 deletion mutant, amino acid residues 296-340 (fragment X)]",binding result,[1],binds
B2,stoichiometry N,SEC,2
same,binding result,DMC1,binds
B3,binding result,RAD54B26-225 [3],binds
B4,binding result,RAD54B26-225 [4],binds
B5,binding result,RAD54B26-225 [5],binds
